Here are results for three molecules from PMC4204884.

The target of data set [1] is T1, Cdc5-R1-R2-D3ΔL (Schizosaccharomyces pombe, UniProt P39964 5-208, del111-146). Description: pull-down.
Data set [2] deals with T1, Cdc5-R1-R2-D3ΔL. Description: pull-down. This is another data set of the same source.

Where two headings read alike, the source gives them in different places.

Take CAGAGAA (ssRNA) [Bi-U6 ssRNA]: the binding result in the data set with Cdc5-R1-R2-D3ΔL [1] is “binds”.
Turning to AAGUGUAG (ssRNA) [Bi-U2 ssRNA], the binding result with Cdc5-R1-R2-D3ΔL [1] is recorded as “binds”.
Take CGUACACCAUCAGGGUACG (structured_RNA) [Bi-MS2 dsRNA]: the binding result with Cdc5-R1-R2-D3ΔL [2] is recorded as “binds”.
